The record followed here is US20250197448A1, “CYCLOPEPTIBODIES AND USES THEREOF” (University of Rochester, priority 2022, published 2025).

For one assay, the target named is T1, PD-L1 (Homo sapiens, UniProt Q9NZQ7).
T1 construct: poly-histidine (C); made in house
Description: in vitro PD-L1 binding assay (plate-immobilized PD-L1). The conditions noted are these: Q6 vs. Q12 spacer. On the procedure: Streptavidin Binding Assay. For the streptavidin binding assays, streptavidin-coated plates (Sigma-Aldrich) were used. For the Keap1, Shh and PD-L1 binding assay, target protein was immobilized on microtiter plates by incubating 100 μL of a 4 μM protein solution in PBS buffer overnight at 4° C., followed by decanting the protein solution and blocking with 0.5% bovine serum albumin in PBS for 2 h at room temperature. After washing (3×150 μL of PBS with 0.05% Tween-20), each well was incubated with 100 μL of purified FLAG-tagged cyclopeptibody at varying concentrations for 1 hour at room temperature. After washing three times with wash buffer, each well was incubated with 100 μL of 1:2500 dilution of HRP-conjugate mouse anti-FLAG polyclonal antibody (Sigma-Aldrich) for 1 hour at room temperature. After washing three times with wash buffer, 100 μL of 2.2 mM o-phenylenediamine dihydrochloride, 4.2 mM urea hydrogen peroxide, 100 mM dibasic sodium phosphate, and 50 mM sodium citrate, pH 5.0, were added to each well, followed by measurement of the absorbance at 450 nm after 10-20 min using a Tecan Infinite 1000 plate reader. Equilibrium dissociation constants (Kp) were determined by fitting the dose-response curves to a 1:1 binding isotherm equation via nonlinear regression. using SigmaPlot. Mean values and standard deviations were calculated from experiments performed in triplicate. […]

Assay [1] addresses T2, PD-L1 receptor on MDA-MB-231 cells (Homo sapiens, UniProt Q9NZQ7).
T2 construct: known to express high levels of PD-L1 on their surface; endogenous in cells; host or cells: MDA-MB-231
Description: flow cytometry of MDA-MB-231 cells, PD-L1 labeling with FITC anti-human IgG Fc. It is filed as cell-based. On the procedure:
The cells were then incubated with fluorescein-conjugated anti-human IgG Fc antibody and analyzed by flow cytometry. The same experiment was carried out in parallel using commercially available anti-PD-L1 antibody as positive control and various negative controls.
Flow Cytometry Analysis. […] When confluent, media was aspirated, cells were washed once with 1×DPBS (no calcium, no magnesium) (Gibco). Adherent cells were detached from the petri dish with 1 mL of accutase (Gibco) pre-warmed to 37° C., followed by incubated for 5 min at 37° C. Cells were spun down using centrifugation. Supernatant was removed and cells were washed three times with staining buffer (1×PBS with 0.5% BSA). Cells were resuspended in Eppendorf tubes in 100 μL PBS at a concentration of 107cells per mL. […] Eppendorf tubes were then placed on the platform shaker for gently shaking for 1 hour at room temperature. After 1 hour, cells were spun down using centrifugation, then supernatant was removed. […] Cells were washed as described above, then resuspended in 400 μL staining buffer. […] The cells of interest were gated using Forward and Side scatter (FSC/SSC). 10,000 singlet events were collected for each specimen.
For orientation: In flow cytometry, cells or beads pass a laser one at a time.

The target in assay [2] is T3, PD-L1 expressed on the surface of MDA-MB-231 cells (Homo sapiens, UniProt Q9NZQ7).
T3 construct: known to express high levels of PD-L1 on their surface; endogenous in cells; host or cells: MDA-MB-231
Description: confocal microscopy imaging of MDA-MB-231 cells. It is filed as cell-based. The conditions noted are these: anti-Fc-FITC staining. On the procedure: Cyclopeptibodies can be applied for detection and imaging of a target protein in cells and other biological systems. To illustrate this aspect of the invention, breast cancer cells MDA-MB-231 cells were treated with PD-L1 targeting cRK10 (pCaaF)-Tras-Fc. MDA-MB-231 cells are known to express high levels of PD-L1 on the cell membrane. After treatment with cRK10 (pCaaF)-Tras-Fc, the cyclopeptibody bound to the surface PD-L1 was labeled with fluorescein-conjugated anti-human Fc antibody (‘anti-Fc-FITC’) and cells were imaged using confocal microscopy.

Starred links: 1 amine or outer side, 2 acyl side, 3 side chain; linkers in the order of their positions; H or OH if unused. Positions of bridges follow the written chain, without caps; N, C: chain ends. Non-standard residues stand in square brackets, D forms with d. No end group written: not given here. pCaaF = p-(2-chloroacetamido)-phenylalanine, O=C(CCl)Nc1ccc(C[C@H](N[*:1])C(=O)[*:2])cc1

T2 sequence (Q9NZQ7 19-290): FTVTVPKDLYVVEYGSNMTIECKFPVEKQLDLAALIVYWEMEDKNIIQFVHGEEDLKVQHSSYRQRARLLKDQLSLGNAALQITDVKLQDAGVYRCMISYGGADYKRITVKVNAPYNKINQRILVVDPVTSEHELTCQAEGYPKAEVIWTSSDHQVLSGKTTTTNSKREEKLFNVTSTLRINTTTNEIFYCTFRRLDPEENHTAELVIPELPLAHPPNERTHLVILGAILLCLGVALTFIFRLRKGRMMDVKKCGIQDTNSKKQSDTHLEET
T3 sequence (Q9NZQ7 19-290): as above
T1 sequence (Q9NZQ7 19-290): as above

Take “FLAG-(GS)2-TYLCGAISLAZKAQIKESL-(Q)6-(Fc)^1-H6 (DYKDDDDKGSGSTYLCGAISLA[pCaaF]KAQIKESLQQQQQQ-{Fc-H6}; thioether 16-23) [cRK10-Tras-Fc]”: in the assay with PD-L1, the “higher PD-L1 binding affinity compared to FLAG-cRK10-Q12-Tras-Fc-His” value was “six-fold higher”. The “median fluorescence intensity (MFI) relative to positive control” value in assay [1] (MDA-MB-231 cells, 0.09 mg/mL) was “comparable median fluorescence intensity (MFI) to that of the positive control anti-PD-L1 antibody”. Also, the “staining / labeling of PD-L1 receptors on MDA-MB-231 cells (in words)” value in assay [1] (concentration not given at the place) is given as “selective labeling of PD-L1 receptors”. For the same substance, the “recognition of surface PD-L1 by fluorescent imaging” value in assay [2] is recorded as “able to efficiently recognize PD-L1”.
